# Results from paper PMC4942345 (Organic & biomolecular chemistry, 2016).
# Primed or numbered codes have the meaning given here. Where no end group is shown, it is not given here. [ ]: non-standard residue; d: D form. The star is where a group is joined. 4‑CBS″ = 4-carboxybenzylsulfonamide on the N-terminus, O=C(O)c1ccc(CS(=O)(=O)*)cc1; 4‑CBS = 4-carboxybenzylsulfonamide, O=C(O)c1ccc(CS(=O)(=O)*)cc1
# Legend:
# [1] = biological target: human carbonic anhydrase II (human, UniProt P00918 1-260); experiment: SPR
# [2] = biological target: human carbonic anhydrase I (human, UniProt P00915 1-261); experiment: SPR
# Chain of human carbonic anhydrase I (P00915 whole entry): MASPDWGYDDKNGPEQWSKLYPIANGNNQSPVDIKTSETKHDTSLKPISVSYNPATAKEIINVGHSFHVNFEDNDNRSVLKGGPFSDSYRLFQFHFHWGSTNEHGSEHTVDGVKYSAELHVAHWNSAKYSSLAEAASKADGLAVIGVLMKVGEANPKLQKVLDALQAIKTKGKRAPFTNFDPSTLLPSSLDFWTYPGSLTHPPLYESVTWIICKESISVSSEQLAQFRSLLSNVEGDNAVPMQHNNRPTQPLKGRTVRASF
Binder,Kd [1] [nM],Kd [2] [nM]
{4‑CBS″}-[dD][dV][dD][dD][dL]-NH2 [4-CBS-dvddl],156,137
{4‑CBS″}-[dD][dA][dD][dV][dL]-NH2 [4-CBS-dadvl],185,130
{4‑CBS}-[dD][dL][dD][dD][dW] [4-CBS-dlddw],22,25
{4‑CBS″}-[dD][dV][dD][dD][dY]-NH2 [4-CBS-dvddy],82,102
{4‑CBS″}-[dD][dV][dD][dE][dY]-NH2 [4-CBS-dvdey],63,55
{4‑CBS}-[dD][dV][dD][dV][dL] [4-CBS-dvdvl],82,83
{4‑CBS″}-[dD][dV][dE][dV][dL]-NH2 [4-CBS-dvevl],82,151
{4‑CBS}-LKEYD [4-CBS-LKEYD],59,81
{4‑CBS″}-[dD][dV][dE][dY][dE]-NH2 [4-CBS-dveye],97,121
{4‑CBS″}-[dD][dL][dE][dE][dY]-NH2 [4-CBS-dleey],88,116
